Measurements as given in patent US20070196376A1.

Experiments:
rat insulin (rat) = assay: ELISA on rat insulin; No Ag well 0.10
mouse insulin (mouse) = assay: ELISA on mouse insulin; No Ag well 0.10
Chain of mouse insulin (mouse) (P01308 whole entry): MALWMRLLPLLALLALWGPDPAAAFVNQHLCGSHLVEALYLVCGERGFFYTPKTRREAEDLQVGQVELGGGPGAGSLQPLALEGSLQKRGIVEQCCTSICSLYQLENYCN

OD 450 (rat insulin (rat)): 3.06 OD 450
OD 450 (mouse insulin (mouse)): 2.52 OD 450
Substance: positive control anti-rat insulin antibody
